This note sets out measurements from article PMC3273806.

Assay [1] has as its target FLAG-tagged RAD18 expressed in human cells (human) (UniProt Q9NS91). In words: quantitative western blotting against a reference complex. On the technique in general: Immunoblotting shows a protein as a band on a membrane.
Assay [2] has as its target RAD18^ΔC1 (residues 1-341), His-tagged or FLAG-tagged (human) (UniProt Q9NS91). In words: quantitative SDS-PAGE.
For assay [3], the target named is human RAD18, wild type, His-tagged or FLAG-tagged (human) (UniProt Q9NS91). In words: quantitative SDS-PAGE.
human RAD18, wild type, His-tagged or FLAG-tagged (human), sequence (Q9NS91 whole entry): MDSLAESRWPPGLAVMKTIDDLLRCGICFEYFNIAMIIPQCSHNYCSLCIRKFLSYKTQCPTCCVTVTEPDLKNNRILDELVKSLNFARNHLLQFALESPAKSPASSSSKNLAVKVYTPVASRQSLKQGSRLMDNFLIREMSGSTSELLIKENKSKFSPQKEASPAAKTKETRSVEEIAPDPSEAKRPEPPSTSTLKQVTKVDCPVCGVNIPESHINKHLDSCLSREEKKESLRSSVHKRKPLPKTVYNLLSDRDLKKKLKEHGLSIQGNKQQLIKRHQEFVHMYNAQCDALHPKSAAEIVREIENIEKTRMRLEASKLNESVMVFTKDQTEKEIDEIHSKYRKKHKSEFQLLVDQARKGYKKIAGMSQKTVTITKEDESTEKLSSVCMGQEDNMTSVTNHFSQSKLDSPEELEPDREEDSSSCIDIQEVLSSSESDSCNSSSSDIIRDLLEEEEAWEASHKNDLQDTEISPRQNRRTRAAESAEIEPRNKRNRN
Assay [4] addresses untagged RAD18 expressed in human cells (human) (UniProt Q9NS91). In words: quantitative western blotting against a reference complex.
Assay [5] has as its target ^HisRAD18^ΔN1 (residues 113-495) (human) (UniProt Q9NS91). In words: quantitative SDS-PAGE.

human RAD18, wild type, His-tagged or FLAG-tagged, sequence (Q9NS91 whole entry): as above
FLAG-tagged human RAD6A, sequence (P49459 whole entry): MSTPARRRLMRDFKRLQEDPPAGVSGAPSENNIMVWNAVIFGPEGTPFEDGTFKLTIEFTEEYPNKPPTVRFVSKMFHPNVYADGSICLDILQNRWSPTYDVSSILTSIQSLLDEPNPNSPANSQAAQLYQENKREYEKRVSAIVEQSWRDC
untagged RAD6A expressed in human cells, sequence (P49459 whole entry): as above
HA-tagged RAD6A expressed in human cells, sequence (P49459 whole entry): as above
human RAD6A, sequence (P49459 whole entry): as above
^HisRAD18^ΔN1 (residues 113-495) (human), sequence (Q9NS91 113-495, stated change not applied): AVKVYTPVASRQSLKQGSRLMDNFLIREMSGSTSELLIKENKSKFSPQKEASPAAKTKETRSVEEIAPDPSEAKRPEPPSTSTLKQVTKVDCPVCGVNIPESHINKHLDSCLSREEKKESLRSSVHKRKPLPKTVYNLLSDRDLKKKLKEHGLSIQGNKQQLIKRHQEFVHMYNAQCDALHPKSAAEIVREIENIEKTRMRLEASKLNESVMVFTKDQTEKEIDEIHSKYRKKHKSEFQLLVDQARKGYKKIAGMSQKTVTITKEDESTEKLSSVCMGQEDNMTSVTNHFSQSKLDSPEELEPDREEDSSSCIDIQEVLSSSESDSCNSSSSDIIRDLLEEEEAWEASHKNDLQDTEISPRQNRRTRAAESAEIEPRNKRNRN
untagged RAD18 expressed in human cells (human), sequence (Q9NS91 whole entry, the tested form may be a part): as the sequence (Q9NS91 whole entry) above
FLAG-tagged RAD18 expressed in human cells, sequence (Q9NS91 whole entry): as above
FLAG-tagged RAD18 expressed in human cells (human), sequence (Q9NS91 whole entry, the tested form may be a part): as the sequence (Q9NS91 whole entry) above
untagged RAD18 expressed in human cells, sequence (Q9NS91 whole entry): as above
RAD18^ΔC1 (residues 1-341), His-tagged or FLAG-tagged (human), sequence (Q9NS91 1-341, stated change not applied): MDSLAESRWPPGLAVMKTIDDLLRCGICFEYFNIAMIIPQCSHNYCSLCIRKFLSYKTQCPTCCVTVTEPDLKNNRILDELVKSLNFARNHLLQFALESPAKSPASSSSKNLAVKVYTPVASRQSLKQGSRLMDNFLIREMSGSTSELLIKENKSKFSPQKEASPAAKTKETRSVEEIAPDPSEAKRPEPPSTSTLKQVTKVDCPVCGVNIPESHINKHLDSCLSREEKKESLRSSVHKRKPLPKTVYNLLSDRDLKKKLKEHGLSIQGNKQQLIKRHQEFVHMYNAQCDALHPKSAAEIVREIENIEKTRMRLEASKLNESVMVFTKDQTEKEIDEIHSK

What is called stoichiometry N is a count of units in the complex or per binding partner. “FLAG-tagged RAD18 expressed in human cells (from UniProt Q9NS91 1-495) (enzyme)” returned a stoichiometry N in assay [1] of 2.

On to “human RAD18, wild type, His-tagged or FLAG-tagged (from UniProt Q9NS91 1-495) (enzyme)”, for which the stoichiometry N (FLAGRAD18 per HisRAD18ΔC1) in assay [2] was 1. Further, the ratio of HisRAD18 to FLAGRAD18 in the complex (HisRAD18 per FLAGRAD18) in assay [3] came to 1.

The substance “FLAG-tagged human RAD6A (from UniProt P49459 1-152) (enzyme)” showed a stoichiometry N (RAD6A per RAD18) in assay [3] of 0.5.

“untagged RAD6A expressed in human cells (from UniProt P49459 1-152) (enzyme)” registered a stoichiometry N (RAD6A per RAD18) in assay [4] of 0.5.

In assay [4], “untagged RAD18 expressed in human cells (from UniProt Q9NS91 1-495) (enzyme)” returned a stoichiometry N of 2.

On to “HA-tagged RAD6A expressed in human cells (from UniProt P49459 1-152) (enzyme)”, for which the stoichiometry N (RAD6A per RAD18) in assay [1] is 0.5.

For “human RAD6A (from UniProt P49459 1-152) (enzyme)”, the stoichiometry N (RAD6A per HisRAD18ΔN1) in assay [5] is 1.
